From the supplement of paper PMC10567573 come the findings set out here.

First the molecules themselves.
B1: KCNA1 (parent)
chain: LKASMRELGLLIFFLFIGVILFSS
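Note: lentivirally expressed fusions sorted by FACS into six bins by GFP to DsRed ratio, PSI derived from sequencing read proportions per bin multiplied by bin number.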

The variants in the series derive from B1. The series is described as follows: protein stability index of a GFP-peptide fusion (GPS, HEK-293T) (PSI 1-6); higher = more stable. The settings on record: c terminus: a fixed tail appended.
As for LIASMRELGLLIFFLFIGVILFSS [K2I], the protein stability index was 2.79.
For LCASMRELGLLIFFLFIGVILFSS [K2C] the value was 1.28; for LRASMRELGLLIFFLFIGVILFSS [K2R], 2.32; for LSASMRELGLLIFFLFIGVILFSS [K2S], 2.19.
Turning to LAASMRELGLLIFFLFIGVILFSS [K2A], the protein stability index was 3.41.
The same measure for LQASMRELGLLIFFLFIGVILFSS [K2Q]: 3.04; for LTASMRELGLLIFFLFIGVILFSS [K2T]: 2.01.
For the variant LEASMRELGLLIFFLFIGVILFSS [K2E], the protein stability index was found to be 3.11.
Take LYASMRELGLLIFFLFIGVILFSS [K2Y]: the protein stability index was 2.35.
Regarding LVASMRELGLLIFFLFIGVILFSS [K2V], the protein stability index is 3.35.
Turning to LDASMRELGLLIFFLFIGVILFSS [K2D], the protein stability index turned out to be 2.89.
The same measure for LGASMRELGLLIFFLFIGVILFSS [K2G]: 2.49.
For the variant LLASMRELGLLIFFLFIGVILFSS [K2L], the protein stability index worked out at 1.81.
The same measure for LNASMRELGLLIFFLFIGVILFSS [K2N]: 2.18; for LWASMRELGLLIFFLFIGVILFSS [K2W]: 2.4; for LPASMRELGLLIFFLFIGVILFSS [K2P]: 2.02.
As to LHASMRELGLLIFFLFIGVILFSS [K2H], the protein stability index is 2.54.
LFASMRELGLLIFFLFIGVILFSS [K2F]: the protein stability index was 2.
As to LMASMRELGLLIFFLFIGVILFSS [K2M], the protein stability index is 2.15.
For LKFSMRELGLLIFFLFIGVILFSS [A3F] the value was 1.72; for LKYSMRELGLLIFFLFIGVILFSS [A3Y], 2.06.
In the case of LKVSMRELGLLIFFLFIGVILFSS [A3V], the protein stability index came out at 1.67.
Turning to LKESMRELGLLIFFLFIGVILFSS [A3E], the protein stability index was 1.78.
The same measure for LKHSMRELGLLIFFLFIGVILFSS [A3H]: 2.89; for LKCSMRELGLLIFFLFIGVILFSS [A3C]: 1.92; for LKQSMRELGLLIFFLFIGVILFSS [A3Q]: 2.12.
For the variant LKTSMRELGLLIFFLFIGVILFSS [A3T], the protein stability index stood at 2.12.
Consider LKMSMRELGLLIFFLFIGVILFSS [A3M], for which the protein stability index turned out to be 1.58.
For LKISMRELGLLIFFLFIGVILFSS [A3I] the value was 1.53; for LKRSMRELGLLIFFLFIGVILFSS [A3R], 1.74; for LKLSMRELGLLIFFLFIGVILFSS [A3L], 1.77.
The same measure for LKWSMRELGLLIFFLFIGVILFSS [A3W]: 2.14; for LKDSMRELGLLIFFLFIGVILFSS [A3D]: 2.46; for LKKSMRELGLLIFFLFIGVILFSS [A3K]: 2.16.
Turning to LKGSMRELGLLIFFLFIGVILFSS [A3G], the protein stability index is 1.65.
Consider LKSSMRELGLLIFFLFIGVILFSS [A3S], for which the protein stability index was found to be 2.37.
For LKPSMRELGLLIFFLFIGVILFSS [A3P] the value was 2.17.
For LKNSMRELGLLIFFLFIGVILFSS [A3N] the value was 1.86.
For WKASMRELGLLIFFLFIGVILFSS [L1W], the protein stability index is 1.56.
As for YKASMRELGLLIFFLFIGVILFSS [L1Y], the protein stability index came to 2.76.
As for LKASMRTLGLLIFFLFIGVILFSS [E7T], the protein stability index amounted to 2.01.
For LKASMRALGLLIFFLFIGVILFSS [E7A] the value was 2.13; for LKASMRNLGLLIFFLFIGVILFSS [E7N], 1.55; for LKASMRSLGLLIFFLFIGVILFSS [E7S], 1.88.
The same measure for LKASMRDLGLLIFFLFIGVILFSS [E7D]: 2.72; for LKASMRCLGLLIFFLFIGVILFSS [E7C]: 1.65; for LKASMRRLGLLIFFLFIGVILFSS [E7R]: 2.07.
For LKASMRILGLLIFFLFIGVILFSS [E7I] the value was 2.77; for LKASMRWLGLLIFFLFIGVILFSS [E7W], 1.42.
For the variant LKASMRYLGLLIFFLFIGVILFSS [E7Y], the protein stability index is 1.74.
Consider LKASMRLLGLLIFFLFIGVILFSS [E7L], for which the protein stability index worked out at 2.16.
For LKASMRHLGLLIFFLFIGVILFSS [E7H] the value was 2.29; for LKASMRGLGLLIFFLFIGVILFSS [E7G], 2.13; for LKASMRFLGLLIFFLFIGVILFSS [E7F], 1.84.
The same measure for LKASMRMLGLLIFFLFIGVILFSS [E7M]: 1.95; for LKASMRKLGLLIFFLFIGVILFSS [E7K]: 2.21.
Take LKASMRQLGLLIFFLFIGVILFSS [E7Q]: the protein stability index was determined as 1.68.
In the case of LKASMRPLGLLIFFLFIGVILFSS [E7P], the protein stability index worked out at 2.28.
For the variant LKASMRVLGLLIFFLFIGVILFSS [E7V], the protein stability index is 1.99.
Regarding LKAWMRELGLLIFFLFIGVILFSS [S4W], the protein stability index was 1.55.
Consider LKAKMRELGLLIFFLFIGVILFSS [S4K], for which the protein stability index amounted to 1.62.
For LKADMRELGLLIFFLFIGVILFSS [S4D] the value was 3.58.
For the variant LKAPMRELGLLIFFLFIGVILFSS [S4P], the protein stability index stood at 3.03.
The same measure for LKATMRELGLLIFFLFIGVILFSS [S4T]: 2.46; for LKANMRELGLLIFFLFIGVILFSS [S4N]: 2.31.
As for LKAHMRELGLLIFFLFIGVILFSS [S4H], the protein stability index worked out at 2.07.
For LKAYMRELGLLIFFLFIGVILFSS [S4Y] the value was 2.17; for LKAIMRELGLLIFFLFIGVILFSS [S4I], 1.69; for LKAQMRELGLLIFFLFIGVILFSS [S4Q], 2.55.
For LKAEMRELGLLIFFLFIGVILFSS [S4E] the value was 3.02; for LKARMRELGLLIFFLFIGVILFSS [S4R], 2.09; for LKAMMRELGLLIFFLFIGVILFSS [S4M], 1.97.
With LKAGMRELGLLIFFLFIGVILFSS [S4G], the protein stability index worked out at 1.91.
For LKAAMRELGLLIFFLFIGVILFSS [S4A] the value was 3.21.
In the case of LKALMRELGLLIFFLFIGVILFSS [S4L], the protein stability index came to 4.39.
The same measure for LKAFMRELGLLIFFLFIGVILFSS [S4F]: 2.15; for LKACMRELGLLIFFLFIGVILFSS [S4C]: 2.87.
For LKAVMRELGLLIFFLFIGVILFSS [S4V] the value was 2.65; for LKASMRELGLYIFFLFIGVILFSS [L11Y], 3.48.
Turning to LKASMRELGLVIFFLFIGVILFSS [L11V], the protein stability index was 1.61.
The same measure for LKASMRELGLCIFFLFIGVILFSS [L11C]: 4.25; for LKASMRELGLDIFFLFIGVILFSS [L11D]: 3.53.
With LKASMRELGLFIFFLFIGVILFSS [L11F], the protein stability index was found to be 1.74.
As for LKASMRELGLPIFFLFIGVILFSS [L11P], the protein stability index came to 1.89.
LKASMRELGLIIFFLFIGVILFSS [L11I]: the protein stability index was found to be 2.49.
For LKASMRELGLTIFFLFIGVILFSS [L11T] the value was 4.58.
Consider LKASMRELGLGIFFLFIGVILFSS [L11G], for which the protein stability index was determined as 3.63.
Consider LKASMRELGLMIFFLFIGVILFSS [L11M], for which the protein stability index was 1.73.
In the case of LKASMRELGLHIFFLFIGVILFSS [L11H], the protein stability index is 2.95.
LKASMRELGLAIFFLFIGVILFSS [L11A]: the protein stability index turned out to be 3.12.
For LKASMRELGLEIFFLFIGVILFSS [L11E], the protein stability index amounted to 2.36.
The same measure for LKASMRELGLKIFFLFIGVILFSS [L11K]: 3.54; for LKASMRELGLWIFFLFIGVILFSS [L11W]: 2.73; for LKASMRELGLRIFFLFIGVILFSS [L11R]: 3.65.
